Measurements from US6689574B1, “Assays for nuclear receptor agonists and antagonists using fluorescence resonance energy transfer” (Merck & Co., Inc., priority 1997, dated 2004).
One block for each molecule: values may come before it.

B1: GST-hPPARγ1LBD (glutathione S-transferase fused to amino acids 176-478 of human PPARγ1) (receptor)
chain: SHNAIRFGRIAQAEKEKLLAEISSDIDQLNPESADLRQALAKHLYDSYIKSFPLTKAKARAILTGKTTDKSPFVIYDMNSLMMGEDKIKFKHITPLQEQSKEVAIRIFQGCQFRSVEAVQEITEYAKSIPGFVNLDLNDQVTLLKYGVHEIIYTMLASLMNKDGVLISEGQGFMTREFLKSLRKPFGDFMEPKFEFAVKFNALELDDSDLAIFIAVIILSGDRPGLLNVKPIEDIQDNLLQALELQLKLNHPESSQLFAKLLQKMTDLRQIVTEHVQLLQVIKKTETDMSLHPLLQEIYKDLY
notes: Uncleaved fusion, detected in the assay by Eu3+K-labeled anti-GST antibody; not shown: glutathione S-transferase (GST) of the pGEX-KG vector (Guan & Dixon 1991); pGEX-KG linker between GST and the LBD
B2: biotin-labeled hPPARγ1LBD (human PPARγ1 ligand binding domain, amino acids 176-478, cleaved free of GST) (receptor)
chain: B1 chain
modifications: biotinylated with Sulfo-NHS-LC-Biotin to a biotin:hPPARγ1LBD ratio of 3:1; sites not stated
notes: Made from pGEX-KG as a GST fusion and cleaved free of GST; In the assay it carried streptavidin-labeled XL665 through the biotin; also called biotin-hPPARγ1LBD
B3: Eu3+K-labeled hCBP1-113 (NH2-terminal amino acids 1-113 of human CBP, cleaved from GST with thrombin, directly labeled with europium cryptate) (other)
chain: MAENLLDGPPNPKRAKLSSPGFSANDSTDFGSLFDLENDLPDELIPNGGELGLLNSGNLVPDAASKHKQLSELLRGGSGSSINPGIGNVSASSPVQQGLGGQAQGQPNSANMA
modifications: directly labeled with europium cryptate (Eu3+K); labeled residues not stated
notes: Made as a GST fusion in E. coli (pGEX) and cleaved with thrombin; The preparation gave two bands, 12 kd (expected) and 10 kd (likely a premature termination product)
B4: GST-hCBP1-113 (glutathione S-transferase fused to amino acids 1-113 of human CBP) (other)
chain: B3 chain
notes: Uncleaved fusion, detected in the assay by Eu3+K-labeled goat anti-GST antibody (Pharmacia 27-4577-01); also called GST-CBP fusion protein; not shown: glutathione S-transferase (GST) of the pGEX expression vector (Pharmacia Biotech); pGEX linker with thrombin site between GST and CBP

Experiments:
PPARγ1LBD = PPARγ1LBD (Homo sapiens, UniProt P37231); assay: Binding constant for hCBP/PPARγ1LBD interaction by FRET competition with non-biotinylated hCBP1-453 (FIG. 6); set-up: amino acids 176-478 of PPARγ1; made in house; host or cells: E. coli (DH5α); settings: saturating PPARγ agonist (10 μM BRL49653); derived from FIG. 6; read-out: Kd for the interaction between hCBP1-453 and PPARγ1LBD
PPARγ1LBD, sequence (P37231 204-505): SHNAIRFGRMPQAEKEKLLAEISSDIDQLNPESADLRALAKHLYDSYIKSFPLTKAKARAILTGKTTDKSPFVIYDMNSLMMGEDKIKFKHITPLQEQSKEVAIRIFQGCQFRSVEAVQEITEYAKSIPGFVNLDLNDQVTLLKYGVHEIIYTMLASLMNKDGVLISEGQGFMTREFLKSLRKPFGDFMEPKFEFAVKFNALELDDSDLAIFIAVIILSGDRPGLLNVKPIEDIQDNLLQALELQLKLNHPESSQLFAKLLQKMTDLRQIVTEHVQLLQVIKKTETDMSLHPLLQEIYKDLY
PPARγ1LBD, sequence (Q92793 1-453 partner): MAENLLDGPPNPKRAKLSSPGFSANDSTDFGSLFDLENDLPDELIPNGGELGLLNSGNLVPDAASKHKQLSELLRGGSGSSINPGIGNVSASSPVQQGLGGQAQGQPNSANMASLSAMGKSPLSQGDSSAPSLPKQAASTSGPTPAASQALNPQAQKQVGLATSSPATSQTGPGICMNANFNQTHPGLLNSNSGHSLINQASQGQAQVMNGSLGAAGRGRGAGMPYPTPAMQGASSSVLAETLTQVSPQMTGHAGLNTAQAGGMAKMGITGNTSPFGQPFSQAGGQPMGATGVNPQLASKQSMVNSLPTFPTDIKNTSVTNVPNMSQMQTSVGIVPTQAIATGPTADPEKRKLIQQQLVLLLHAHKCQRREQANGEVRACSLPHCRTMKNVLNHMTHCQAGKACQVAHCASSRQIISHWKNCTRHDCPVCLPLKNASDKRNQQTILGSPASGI
Experimental: The above-described assay can also be used to characterize the interaction between nuclear receptors with co-activators as, e.g., by determining the binding constant for that interaction. […] Saturating amounts of PPARγ agonist (10 μM BRL49653) were used. Increasing concentrations of non-biotinylated hCBP1-453 were used to titrate away biotin-hCBP-PPARγ1LBD complex and decrease the fluorescence energy transfer. A Kd of 300 nM for the interaction between hCBP1-453 and PPARγ1LBD can be derived from the results illustrated in FIG. 6 and this Kd (300 nM) is a measurement of the affinity between CBP and PPARγ.

[1] = biological target: non-biotinylated hCBP1-453 (NH2-terminal amino acids 1-453 of human CBP, cleaved from GST) (human, UniProt Q92793 1-453); assay: FRET competition: increasing non-biotinylated hCBP1-453 displaces biotin-hCBP from PPARγ1LBD, saturating agonist (10 µM BRL49653)
Experimental: The above-described assay can also be used to characterize the interaction between nuclear receptors with co-activators as, e.g., by determining the binding constant for that interaction. […] Saturating amounts of PPARγ agonist (10 μM BRL49653) were used.

[2] = biological target: B3; assay: FRET, Eu3+K-hCBP1-113 + biotin-hPPARγ1LBD + SA-XL665, PBS
[3] = biological target: B2; assay: FRET, same format without agonist (0.1% DMSO vehicle), PBS; background control
[4] = biological target: B2; assay: FRET, Eu3+K-hCBP1-113 + biotin-hPPARγ1LBD + SA-XL665, 1 µM AD5075, HEPES + 0.05% NP40
[5] = biological target: B2; assay: FRET, same format without agonist (vehicle), HEPES + 0.05% NP40; background control
[6] = biological target: B2; assay: FRET, Eu3+K-hCBP1-113 (100 nM) + biotin-hPPARγ1LBD (100 nM) + SA-XL665 (100 nM), 1 µM AD5075, PBS
[7] = biological target: B2; assay: FRET, GST-hCBP1-113 + Eu3+K anti-GST antibody + biotin-hPPARγ1LBD (100 nM) + SA-XL665 (500 nM), 1 µM AD5075, HEPES + 0.05% NP40
Text: (§1) In order to get an even better signal-noise ratio, the above-described format was modified slightly for experiment 3.

[8] = biological target: B2; assay: FRET, experiment 3 format, HEPES + 0.05% NP40
Text: as §1

Kd (PPARγ1LBD): 300 nM
Molecule: hCBP1-453: NH2-terminal 1-453 amino acids of human CBP, expressed in E. coli as GST fusion and cleaved

Molecule: B1
Kd [1]: 300 nM

Molecule: B2
binding result [2]: binds

Molecule: B3
Emission ratio with vehicle [3]: 1070 665 nm/620 nm ratio x 10,000 | Emission ratio with AD5075 [4]: 967 665 nm/620 nm ratio x 10,000 | Emission ratio with vehicle [5]: 617 665 nm/620 nm ratio x 10,000 | Emission ratio with AD5075 [6]: 1130 665 nm/620 nm ratio x 10,000

Molecule: B4
Emission ratio with AD5075 [7]: 1080 665 nm/620 nm ratio x 10,000 | Emission ratio with vehicle [5]: 536 665 nm/620 nm ratio x 10,000 | signal-noise ratio (with AD5075 against without) [8]: 2 fold
